Experimental data taken from IntAct's records for PubMed 9605924.

B1: Thyroid hormone receptor beta (Homo sapiens), P10828-1 (parent)
chain: MTPNSMTENGLTAWDKPKHCPDREHDWKLVGMSEACLHRKSHSERRSTLKNEQSSPHLIQTTWTSSIFHLDHDDVNDQSVSSAQTFQTEEKKCKGYIPSYLDKDELCVVCGDKATGYHYRCITCEGCKGFFRRTIQKNLHPSYSCKYEGKCVIDKVTRNQCQECRFKKCIYVGMATDLVLDDSKRLAKRKLIEENREKRRREELQKSIGHKPEPTDEEWELIKTVTEAHVATNAQGSHWKQKRKFLPEDIGQAPIVNAPEGGKVDLEAFSHFTKIITPAITRVVDFAKKLPMFCELPCEDQIILLKGCCMEIMSLRAAVRYDPESETLTLNGEMAVTRGQLKNGGLGVVSDAIFDLGMSLSSFNLDDTEVALLQAVLLMSSDRPGLACVERIEKYQDSFLLAFEHYINYRKHHVTHFWPKLLMKVTDLRMIGACHASRFLHMKVECPTELFPPLFLEVFED

How the values were obtained:
[1] = variants of: B1; details: with ncor2_human NCOR2, Q9Y618
[2] = variants of: B1; details: with ncoa1_human NCOA1, Q15788
Chain of ncoa1_human NCOA1, Q15788 (Q15788 whole entry): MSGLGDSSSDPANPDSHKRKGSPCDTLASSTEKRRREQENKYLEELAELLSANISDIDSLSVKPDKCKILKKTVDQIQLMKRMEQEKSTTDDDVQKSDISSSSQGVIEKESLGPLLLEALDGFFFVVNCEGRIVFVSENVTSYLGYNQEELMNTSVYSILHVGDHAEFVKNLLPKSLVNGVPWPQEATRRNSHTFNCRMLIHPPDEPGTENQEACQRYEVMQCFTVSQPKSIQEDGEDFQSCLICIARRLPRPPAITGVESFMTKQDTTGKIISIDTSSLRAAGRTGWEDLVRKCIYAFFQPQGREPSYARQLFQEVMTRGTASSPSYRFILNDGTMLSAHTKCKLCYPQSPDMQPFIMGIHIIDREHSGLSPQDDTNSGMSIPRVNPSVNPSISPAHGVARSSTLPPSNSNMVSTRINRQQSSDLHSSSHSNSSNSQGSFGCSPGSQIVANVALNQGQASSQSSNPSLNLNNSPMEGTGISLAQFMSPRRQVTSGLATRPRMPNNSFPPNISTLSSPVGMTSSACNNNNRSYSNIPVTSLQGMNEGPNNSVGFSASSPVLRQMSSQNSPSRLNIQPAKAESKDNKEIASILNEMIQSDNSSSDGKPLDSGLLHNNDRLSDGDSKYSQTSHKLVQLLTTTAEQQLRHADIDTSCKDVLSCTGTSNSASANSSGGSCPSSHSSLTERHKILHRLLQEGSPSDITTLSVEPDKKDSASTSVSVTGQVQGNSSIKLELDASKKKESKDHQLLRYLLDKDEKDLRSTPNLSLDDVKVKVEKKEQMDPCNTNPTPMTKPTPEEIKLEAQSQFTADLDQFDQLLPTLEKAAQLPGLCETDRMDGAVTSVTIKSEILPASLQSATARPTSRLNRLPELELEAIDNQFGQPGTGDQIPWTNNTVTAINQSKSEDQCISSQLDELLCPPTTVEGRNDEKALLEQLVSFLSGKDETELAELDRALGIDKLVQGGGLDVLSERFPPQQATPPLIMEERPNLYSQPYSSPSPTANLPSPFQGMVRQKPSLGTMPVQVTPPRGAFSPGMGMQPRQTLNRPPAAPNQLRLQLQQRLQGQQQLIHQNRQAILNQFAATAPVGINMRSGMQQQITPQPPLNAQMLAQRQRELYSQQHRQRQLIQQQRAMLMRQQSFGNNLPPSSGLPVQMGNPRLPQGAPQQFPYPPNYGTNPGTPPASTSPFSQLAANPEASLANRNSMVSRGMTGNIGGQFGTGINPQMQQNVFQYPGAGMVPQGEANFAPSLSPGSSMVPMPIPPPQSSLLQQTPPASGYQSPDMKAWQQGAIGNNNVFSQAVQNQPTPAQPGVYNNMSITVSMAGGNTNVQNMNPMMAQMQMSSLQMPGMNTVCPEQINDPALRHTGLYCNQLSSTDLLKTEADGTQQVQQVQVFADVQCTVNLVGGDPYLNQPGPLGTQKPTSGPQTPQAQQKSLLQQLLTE

Chain of ncor2_human NCOR2, Q9Y618 (Q9Y618 whole entry): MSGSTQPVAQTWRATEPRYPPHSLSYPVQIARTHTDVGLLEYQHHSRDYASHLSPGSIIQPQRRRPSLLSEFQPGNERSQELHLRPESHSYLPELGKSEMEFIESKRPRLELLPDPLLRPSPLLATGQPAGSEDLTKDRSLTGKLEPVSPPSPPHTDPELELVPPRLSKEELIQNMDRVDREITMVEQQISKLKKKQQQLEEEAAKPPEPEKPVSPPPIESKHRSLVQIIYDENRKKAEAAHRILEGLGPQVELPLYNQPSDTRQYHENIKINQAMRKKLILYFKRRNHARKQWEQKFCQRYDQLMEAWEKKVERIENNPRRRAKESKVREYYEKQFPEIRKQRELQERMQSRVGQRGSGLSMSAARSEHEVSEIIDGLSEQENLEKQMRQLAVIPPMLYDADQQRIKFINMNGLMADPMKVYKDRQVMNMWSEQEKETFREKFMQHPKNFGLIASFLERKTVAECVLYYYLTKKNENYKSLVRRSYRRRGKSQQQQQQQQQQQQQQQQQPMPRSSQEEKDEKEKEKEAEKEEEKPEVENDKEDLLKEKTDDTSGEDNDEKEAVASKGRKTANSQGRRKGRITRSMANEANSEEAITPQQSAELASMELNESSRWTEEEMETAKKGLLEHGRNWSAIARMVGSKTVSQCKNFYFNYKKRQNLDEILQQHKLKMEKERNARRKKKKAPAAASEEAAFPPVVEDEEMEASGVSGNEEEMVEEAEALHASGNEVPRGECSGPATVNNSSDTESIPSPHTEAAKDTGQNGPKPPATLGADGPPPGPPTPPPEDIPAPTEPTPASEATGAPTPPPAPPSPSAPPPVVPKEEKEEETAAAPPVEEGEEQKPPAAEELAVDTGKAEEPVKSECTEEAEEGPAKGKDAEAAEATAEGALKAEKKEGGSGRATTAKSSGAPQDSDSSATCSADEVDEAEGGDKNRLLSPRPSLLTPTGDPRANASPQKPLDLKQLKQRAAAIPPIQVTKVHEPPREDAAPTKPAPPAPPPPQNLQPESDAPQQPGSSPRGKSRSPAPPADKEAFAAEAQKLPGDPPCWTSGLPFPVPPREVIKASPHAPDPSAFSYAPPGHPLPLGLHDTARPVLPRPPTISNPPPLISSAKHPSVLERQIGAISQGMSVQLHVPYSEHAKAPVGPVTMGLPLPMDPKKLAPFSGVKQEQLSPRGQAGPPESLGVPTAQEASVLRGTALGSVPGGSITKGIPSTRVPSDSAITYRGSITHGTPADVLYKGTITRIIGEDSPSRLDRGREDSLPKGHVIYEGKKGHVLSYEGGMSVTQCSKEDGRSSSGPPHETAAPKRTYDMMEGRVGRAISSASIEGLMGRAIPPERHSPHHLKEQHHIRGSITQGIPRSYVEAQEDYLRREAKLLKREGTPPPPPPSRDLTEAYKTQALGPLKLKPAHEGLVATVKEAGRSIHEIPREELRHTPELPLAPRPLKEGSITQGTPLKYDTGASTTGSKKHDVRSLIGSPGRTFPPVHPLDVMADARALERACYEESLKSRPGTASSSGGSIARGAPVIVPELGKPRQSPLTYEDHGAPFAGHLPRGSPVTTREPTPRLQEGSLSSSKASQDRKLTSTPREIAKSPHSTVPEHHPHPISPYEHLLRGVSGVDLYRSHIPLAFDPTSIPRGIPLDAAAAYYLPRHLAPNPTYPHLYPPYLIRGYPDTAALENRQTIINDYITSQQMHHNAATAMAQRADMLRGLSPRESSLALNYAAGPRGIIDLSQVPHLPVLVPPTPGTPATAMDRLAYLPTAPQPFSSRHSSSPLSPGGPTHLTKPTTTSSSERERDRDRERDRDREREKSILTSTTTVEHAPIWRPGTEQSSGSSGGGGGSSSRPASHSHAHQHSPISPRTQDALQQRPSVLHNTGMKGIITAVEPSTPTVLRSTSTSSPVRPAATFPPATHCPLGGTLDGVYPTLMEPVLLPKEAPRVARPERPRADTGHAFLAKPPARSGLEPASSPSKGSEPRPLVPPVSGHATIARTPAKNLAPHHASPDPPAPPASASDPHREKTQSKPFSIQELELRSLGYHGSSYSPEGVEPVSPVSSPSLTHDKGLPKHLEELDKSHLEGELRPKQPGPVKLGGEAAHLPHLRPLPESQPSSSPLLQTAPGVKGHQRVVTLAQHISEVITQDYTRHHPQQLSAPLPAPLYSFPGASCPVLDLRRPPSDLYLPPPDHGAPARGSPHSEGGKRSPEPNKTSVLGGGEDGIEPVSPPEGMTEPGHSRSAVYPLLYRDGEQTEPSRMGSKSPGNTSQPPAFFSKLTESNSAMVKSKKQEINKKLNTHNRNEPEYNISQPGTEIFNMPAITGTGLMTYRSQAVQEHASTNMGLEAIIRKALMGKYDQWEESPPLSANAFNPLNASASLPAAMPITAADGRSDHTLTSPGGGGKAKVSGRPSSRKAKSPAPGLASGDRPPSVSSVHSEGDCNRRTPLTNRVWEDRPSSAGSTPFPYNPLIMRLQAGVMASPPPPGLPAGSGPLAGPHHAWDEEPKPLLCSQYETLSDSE

Row | effect of a mutation on the interaction [1] | effect of a mutation on the interaction [2] | Variant
1 | increasing interaction strength | increasing interaction strength | MTPNSMTENGLTAWDKPKHCPDREHDWKLVGMSEACLHRKSHSERRSTLKNEQSSPHLIQTTWTSSIFHLDHDDVNDQSVSSAQTFQTEEKKCKGYIPSYLDKDELCVVCGDKATGYHYRCITCEGCKGFFRRTIQKNLHPSYSCKYEGKCVIDKVTRNQCQECRFKKCIYVGMATDLVLDDSKRLAKRKLIEENREKRRREELQKSIGHKPEPTDEEWELIKTVTEAHVATNAQGSHWKQKRKFLPEDIGQAPIVNAPEGGKVDLEAFSHFTKIITPAITRVVDFAKKLPMFCELPCEDQIILLKGCCMEIMSLRAAVRYDPESETLTLNGEMAVTRGQLKNGGLGVVSDAIFDLGMSLSSFNLDDTEVALLQAVLLMSSDHPGLACVERIEKYQDSFLLAFEHYINYRKHHVTHFWPKLLMKVTDLRMIGACHASRFLHMKVECPTELFPPLFLEVFED [R383H]
2 | increasing interaction strength | increasing interaction strength | MTPNSMTENGLTAWDKPKHCPDREHDWKLVGMSEACLHRKSHSERRSTLKNEQSSPHLIQTTWTSSIFHLDHDDVNDQSVSSAQTFQTEEKKCKGYIPSYLDKDELCVVCGDKATGYHYRCITCEGCKGFFRRTIQKNLHPSYSCKYEGKCVIDKVTRNQCQECRFKKCIYVGMATDLVLDDSKRLAKRKLIEENREKRRREELQKSIGHKPEPTDEEWELIKTVTEAHVATNAQGSHWKQKRKFLPEDIGQAPIVNAPEGGKVDLEAFSHFTKIITPAITRVVDFAKKLPMFCELPCEDQIILLKGCCMEIMSLRAAVRYDPESETLTLNGEMAVTRGQLKNGGLGVVSDAIFDLGMSLSSFNLDDTEVALLQAVLLMSSDRPGLACVERIEKYQDSFLLAFEHYINYRKHHVTHFWPKLLMKVTDLQMIGACHASRFLHMKVECPTELFPPLFLEVFED [R429Q]
